For one molecule, EC50 results are on record in patent US20240409663A1 (CONCEPT TO MEDICINE BIOTECH, published 2024).

For assay [1], the target named is T1, human GPC3 on cells (human, UniProt P51654 25-554).
T1 construct: whole, on cells; over-expressed on CHOK1 cells or endogenous on HEPG2, Hep3B and Huh-7 hepatocellular carcinoma cells; the cell line is named under assay; also called GPC3-CHOK1 cells; human GPC3 over-expressed CHOK1 cells
As to the kind of experiment: FACS, GPC3-CHOK1 cells. As to the method:
Cell-based binding: FACS was used to evaluate the binding activity of chimeric mAbs (18C1D9, 52H5D3B8, 163E7D12, 172B4E9, 152E9F7 and 171F9C5) with comparison to a known GPC3 antibody GC33 (Chugai Pharmaceutical) on human GPC3 over-expressed CHOK1 cells.
Briefly, GPC3-CHOK1 cells were washed by FACS buffer and divided to each well with 3-fold serially diluted chimeric mAbs or GC33 mAb starting at 5 μg/mL at 4° C. for 40 mins. […] Samples were washed twice with FACS buffer.

For assay [2], the target named is T1, human GPC3 on cells. The assay can be described thus: FACS, GPC3-CHOK1 cells. As to the method:
(§1) Cell-based binding: FACS was used to evaluate the binding activity of 52H5D3B8 chimeric mAbs with comparison to a known GPC3 antibody GC33 (Chugai Pharmaceutical) on human GPC3 over-expressed CHOK1 cells, HEPG2 cells, Hep3B cells and Huh-7 cells.
(§2) Briefly, GPC3-CHOK1 cells, HEPG2 cells, Hep3B cells or Huh-7 cells were firstly incubated with Fc blocking reagent at 4° C. for 15 mins. Cells were washed by FACS buffer and divided to each well with 3-fold serially diluted 52H5D3B8 chimeric mAbs or GC33 mAb starting at 30 μg/mL at 4° C. for 60 mins. Cells were washed by FACS buffer and fixed with 2% PFA at RT for 15 mins. […] Samples were washed twice with FACS buffer.
This is another data set of the same source.

For assay [3], the target named is T1, human GPC3 on cells. The assay can be described thus: FACS, GPC3-CHOK1 cells. On the procedure: (§3) To evaluate the antigen binding property, the humanized antibodies were analyzed for their binding to human GPC3 over-expressed CHOK1 cells and Huh-7 cells by FACS. Briefly, GPC3-CHOK1 cells and Huh-7 cells were firstly incubated with Fc blocking reagent at 4° C. for 15 mins. Cells were washed by FACS buffer and divided to each well with 4-fold serially diluted humanized antibodies starting at 10 μg/mL at 4° C. for 60 mins. Cells were washed by FACS buffer and fixed with 2% PFA at RT for 15 mins. […] As different plates might affect the EC50 of 52H5D3B8-VH+VL, the 12 humanized antibodies were separated into two plates.
This is another data set of the same source.

Assay [4] addresses T1, human GPC3 on cells. As to the kind of experiment: FACS, Huh-7 cells. As to the method:
as §3

Assay [5] has as its target T1, human GPC3 on cells. The assay can be described thus: FACS, Hep3B cells. On the procedure: as §1, §2
The target in assay [6] is T1, human GPC3 on cells. As to the kind of experiment: FACS, GPC3-CHOK1 cells. As to the method:
Cell-based binding: FACS was used to evaluate the binding activity of 52H5D3B8, 52H5D3B8-6 # chimeric mAbs and GC33 antibody on human GPC3 over-expressed CHOK1 cells, Hep3B cells and Huh-7 cells.
Briefly, GPC3-CHOK1 cells, Hep3B cells or Huh-7 cells were firstly incubated with Fc blocking reagent at 4° C. for 15 mins. Cells were washed by FACS buffer and divided to each well with 3-fold serially diluted 52H5D3B8, 52H5D3B8-6 # chimeric mAbs or GC33 antibody starting at 30 μg/mL at 4° C. for 60 mins. Cells were washed by FACS buffer and fixed with 2% PFA at RT for 15 mins. […] Samples were washed twice with FACS buffer.
This is another data set of the same source.

Assay [7] has as its target T1, human GPC3 on cells. The assay can be described thus: FACS, Huh-7 cells. As to the method: as §1, §2
The source holds these as a separate data set.

The target of assay [8] is T2, human GPC3 protein (ELISA coat) (human, UniProt P51654 25-559, limits assumed).
T2 construct: protein coated on plates in the cross species ELISA
The assay can be described thus: ELISA, coated human GPC3. As to the method: ELISA testing was carried out to evaluate the binding of chimeric antibodies to human, mouse and cynomolgus GPC3, respectively.
Briefly, microtiter plates were coated with human, mouse and cynomolgus GPC3 proteins at 1 μg/ml in PBS, 100 μl/well at 4° C. overnight, then blocked with 150 μl/well of 1% BSA. Three-fold dilutions of chimeric antibodies starting from 9 μg/ml were added to each well and incubated for 1 hour at 37° C. The plates were washed with PBS/Tween and then incubate with mouse-anti-human IgG Fc antibody conjugated with Horse Radish Peroxidase (HRP) for 30 mins at 37° C. After washing, the plates were developed with TMB substrate and analyzed by spectrophotometer at OD 450 nm. The 52H5D3B8 antibody bound to human, cynomolgus GPC3 and mouse GPC3 (FIG. 3 and Table 4).

B1: 52H5D3B8 chimeric mAb (antibody, V domains shown)
VH: QVQLQQSGAELVRPGASVKLSCKALGYTFTDYEMHWVKQTPVHGLEWIGAIHPGSGGTAYNQKFKGKATLTADKFSSTGYMELSSLTSEDSAVYYCTRFYSYAYWGQGTLVTVSA
VL: DVVMTQTPLSLPVSLGDQASISCRSSQSLVHSNGNTYLQWYLQKPGQSPKLLIYKVSNRFSGVPDRFSGSGSGTDFILKISRVEAEDLGVYFCSQSIHVPYTFGGGTKLEIK
notes: also called 52H5D3B8-VH+VL; chimeric 52H5D3B8 mAb
B1: the EC50 amounted to 0.0909 mg/L in assay [1]; 0.0922 mg/L in assay [2]; 0.0479 mg/L in assay [3]; 0.0469 mg/L in assay [4]; 0.192 mg/L in assay [5]; 0.07 mg/L in assay [6]. Further, the EC50 worked out at 0.0986 mg/L in assay [7] and 0.017 mg/L in assay [8].
